Reference: article PMC11109279, “Heliorhodopsin-mediated light-modulation of ABC transporter” (Nature Communications, 2024)

Experiments:
Assay in all cases: ITC; OcHeR injected into the Omr protein; 25 °C, 500 rpm; buffer SD; MicroCal ITC200; one site binding model (sequential binding site model for R233Q); perfect saturation was not achieved
Settings in all cases: both partners purified
[1] = biological target: T1, NBD-truncated OmrDE (OmrD^tcE^tc) (Omithinimicrobium cerasi strain USBA17B2)
T1 chain 1: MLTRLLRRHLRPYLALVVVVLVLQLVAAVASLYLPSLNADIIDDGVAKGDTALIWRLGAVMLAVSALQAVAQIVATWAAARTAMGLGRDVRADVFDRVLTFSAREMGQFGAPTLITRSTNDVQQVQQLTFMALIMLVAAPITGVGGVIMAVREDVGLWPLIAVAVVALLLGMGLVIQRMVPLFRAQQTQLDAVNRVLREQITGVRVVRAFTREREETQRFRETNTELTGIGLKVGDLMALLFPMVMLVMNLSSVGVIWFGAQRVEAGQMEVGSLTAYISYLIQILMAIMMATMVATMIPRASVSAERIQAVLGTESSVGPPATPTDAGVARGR
T1 chain 2: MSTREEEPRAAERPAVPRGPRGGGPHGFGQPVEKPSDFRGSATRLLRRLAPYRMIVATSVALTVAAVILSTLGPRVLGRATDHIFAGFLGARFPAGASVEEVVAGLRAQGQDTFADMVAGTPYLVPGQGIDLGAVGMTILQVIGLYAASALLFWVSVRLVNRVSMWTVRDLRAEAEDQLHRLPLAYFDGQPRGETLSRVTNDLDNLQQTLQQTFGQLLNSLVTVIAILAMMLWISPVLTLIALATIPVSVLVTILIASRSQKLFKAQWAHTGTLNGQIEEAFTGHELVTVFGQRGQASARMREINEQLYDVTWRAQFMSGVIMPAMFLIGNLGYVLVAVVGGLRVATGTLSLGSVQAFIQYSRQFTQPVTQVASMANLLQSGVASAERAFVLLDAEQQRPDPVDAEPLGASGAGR

[2] = biological target: T2, heterodimeric multidrug resistance ABC transporter OmrDE (Omithinimicrobium cerasi strain USBA17B2, UniProt A0A285VW85 1-577; A0A285VWG3 1-661)
T2 construct: gene codon-optimized and synthesized; also called OmrDE heterodimer; source: E. coli C43 (DE3), OmrD and OmrE co-expressed, purified (DDM-solubilized membrane fraction, Ni2+-NTA agarose)
T2 sequence (looked up) 1: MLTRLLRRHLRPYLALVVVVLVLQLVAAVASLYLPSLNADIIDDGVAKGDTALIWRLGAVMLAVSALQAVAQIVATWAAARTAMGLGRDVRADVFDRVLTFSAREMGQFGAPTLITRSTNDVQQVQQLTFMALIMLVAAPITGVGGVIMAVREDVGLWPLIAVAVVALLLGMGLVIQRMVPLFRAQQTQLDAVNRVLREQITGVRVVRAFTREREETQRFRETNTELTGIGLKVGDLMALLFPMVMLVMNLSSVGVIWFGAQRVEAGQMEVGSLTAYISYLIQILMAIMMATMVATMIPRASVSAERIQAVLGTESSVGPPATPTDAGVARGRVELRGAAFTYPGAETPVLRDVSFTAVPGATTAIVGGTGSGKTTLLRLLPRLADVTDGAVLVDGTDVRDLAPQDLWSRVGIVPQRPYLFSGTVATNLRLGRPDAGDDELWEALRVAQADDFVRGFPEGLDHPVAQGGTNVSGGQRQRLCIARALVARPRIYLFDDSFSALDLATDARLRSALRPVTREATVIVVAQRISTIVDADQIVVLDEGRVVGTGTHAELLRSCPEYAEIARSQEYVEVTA
T2 sequence (looked up) 2: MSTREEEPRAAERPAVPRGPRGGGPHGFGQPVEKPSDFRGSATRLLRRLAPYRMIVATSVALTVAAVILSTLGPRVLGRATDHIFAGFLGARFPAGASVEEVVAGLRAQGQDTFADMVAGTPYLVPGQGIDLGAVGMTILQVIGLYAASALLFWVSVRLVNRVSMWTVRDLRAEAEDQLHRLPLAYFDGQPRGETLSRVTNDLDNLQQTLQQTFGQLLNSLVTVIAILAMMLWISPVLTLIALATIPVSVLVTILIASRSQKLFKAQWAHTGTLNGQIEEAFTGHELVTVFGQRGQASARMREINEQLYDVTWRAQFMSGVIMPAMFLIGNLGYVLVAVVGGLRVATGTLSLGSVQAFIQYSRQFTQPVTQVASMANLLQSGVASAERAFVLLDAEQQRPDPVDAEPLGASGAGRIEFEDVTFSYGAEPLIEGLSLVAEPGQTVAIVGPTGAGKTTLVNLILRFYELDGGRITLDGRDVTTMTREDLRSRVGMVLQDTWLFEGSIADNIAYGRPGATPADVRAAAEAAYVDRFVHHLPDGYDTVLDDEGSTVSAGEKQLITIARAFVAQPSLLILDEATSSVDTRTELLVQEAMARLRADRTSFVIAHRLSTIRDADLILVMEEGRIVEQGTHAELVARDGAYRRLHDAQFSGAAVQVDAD

[3] = biological target: T3, OmrD (OmrD::his-tag) (Omithinimicrobium cerasi strain USBA17B2, UniProt A0A285VW85 1-577)
T3 construct: OmrD-His calculated as 62.86 kDa; also called pET21b-OmrD; source: E. coli C43 (DE3); purified (Ni2+-NTA agarose) for ITC; in DDM-solubilized membrane proteins for the His-tag pull-down
T3 sequence (looked up): T2 sequence (looked up) 1

[4] = biological target: T4, OmrE (OmrE-His) (Omithinimicrobium cerasi strain USBA17B2, UniProt A0A285VWG3 1-661)
T4 construct: OmrE-His calculated as 72.09 kDa; source: E. coli C43 (DE3), purified (DDM-solubilized membrane fraction, Ni2+-NTA agarose)
T4 sequence (looked up): T2 sequence (looked up) 2

B1: Omithinimicrobium cerasi strain USBA17B2 heliorhodopsin (OcHeR) WT (natural protein, UniProt A0A285W045 1-266, looked up)
chain: MGSTGTGSTASTTRADESRYAGLRRYNVVAAVVHAAQAVAVVVLATDFTLPMTASYLAGPPGSPPGEAVTLWDVPIPLAIATFLALSALFHVIVASPPFFDRYRRGLAQGHNYFRWVEYSLSSSLMIVIIAQLVGISDVVALLGLFGVNASMILFGWLQEKYHQPGDGGWLPFVFGCLAGAVPWVGIVLYTIAPGSTSGAEPPGFVYGIIVSLFLFFNVFALVQWLQYRPVGRFRDYLLGERLYITLSLVAKSALAWQIFGGTLAT
modifications: retinal Schiff base linked to K252
notes: gene codon-optimized for E. coli and chemically synthesized; source: E. coli C43 (DE3), purified (DDM-solubilized membrane fraction, Ni2+-NTA agarose)
dH [1]: -35.5 kcal/mol | Kd [2]: 91.6 µM | dH [2]: 48.9 kcal/mol | Kd [3]: 123 µM | Kd [4]: 35.3 µM | dH [4]: 35.5 kcal/mol
